Laboratory results: US20170183639A1

Biological target: purified human recombinant Src (human) (UniProt P12931)
Assay: in vitro competition; Src pre-incubated with peptide, GST-CD2 pull-down as competitor

pNaSH2 (TAT-tagged CD2-derived peptide phosphorylated at Y260)
IC50: 0.5 µM
